Measured values taken from patent US20040037843A1.
Where two headings read alike, the source gives them in different places. Each block holds one binder with its values, some of them ahead of it.

Experiments:
HLA-A*0202 (human) [1] = conditions: remark: other sources report otherwise
HLA-A*0201 (human) [2] = conditions: remark: other sources report otherwise
HLA-A*0202 (human) [3] = assay: competition with 125I-labelled standard peptide for purified HLA; conditions: remark: other sources report otherwise
HLA-A*6802 (human) [4] = assay: competition with 125I-labeled probe peptide for purified HLA, gel filtration; conditions: remark: other sources report otherwise
HLA-A*6802 (human) [5] = conditions: remark: other sources report otherwise
HLA-A*0201 (human) [6] = assay: inhibition of 125I probe peptide binding to purified HLA, gel filtration; conditions: remark: other sources report otherwise
HLA-A*6802 (human) [7] = assay: as above; conditions: remark: other sources report otherwise
HLA-A*0201 (human) [8] = assay: competition with 125I-labeled probe peptide for purified HLA, gel filtration; conditions: remark: other sources report otherwise
HLA-A*0206 (human) [9] = assay: as above; conditions: remark: other sources report otherwise
HLA-A*0101 (human) = conditions: remark: other sources report otherwise
HLA-A*2401 (human) = conditions: scale: ratio
HLA-A*0201 (human) [10] = assay: competition with 125I-labelled probe peptide on purified HLA; conditions: remark: other sources report otherwise
HLA-A*0206 (human) [11] = assay: as above; conditions: remark: other sources report otherwise
HLA-A*0202 (human) [12] = assay: as above; conditions: remark: other sources report otherwise
HLA-A*0203 (human) [13] = assay: as above; conditions: remark: other sources report otherwise
HLA-A*1101 (human) [14] = conditions: remark: other sources report otherwise
HLA-A*0206 (human) [15] = assay: competition with 125I-labelled standard peptide for purified HLA; conditions: remark: other sources report otherwise
HLA-A*0201 (human) [16] = conditions: remark: other sources report otherwise; remark: listed apart in the source
HLA-A*0201 (human) [17] = assay: competition with 125I-labelled standard peptide for purified HLA; conditions: remark: other sources report otherwise
HLA-A*0206 (human) [18] = conditions: remark: other sources report otherwise
HLA-A*0201 (human) [19] = assay: competition with 125I probe peptide on purified HLA, gel filtration; conditions: remark: other sources report otherwise
HLA-A*0206 (human) [20] = assay: as above; conditions: remark: other sources report otherwise
HLA-A*0203 (human) [21] = assay: as above; conditions: remark: other sources report otherwise
HLA-A*6802 (human) [22] = assay: as above; conditions: remark: other sources report otherwise
HLA-A*0202 (human) [23] = assay: as above; conditions: remark: other sources report otherwise
HLA-A*1101 (human) [24] = conditions: remark: other sources report otherwise; remark: listed apart in the source
HLA-A*0203 (human) [25] = conditions: remark: other sources report otherwise
HLA-A*0203 (human) [26] = conditions: remark: other sources report otherwise; remark: listed apart in the source
HLA-A*0202 (human) [27] = assay: competition with 125I-labeled probe peptide for purified HLA, gel filtration; conditions: remark: other sources report otherwise
HLA-A*0201 (human) [28] = conditions: remark: other sources report otherwise; remark: listed apart in the source
HLA-A*0202 (human) [29] = conditions: remark: other sources report otherwise; remark: listed apart in the source
HLA-A*0203 (human) [30] = conditions: remark: other sources report otherwise; remark: listed apart in the source
HLA-A*0301 (human) = conditions: remark: other sources report otherwise
HLA-A*0203 (human) [31] = assay: inhibition of 125I probe peptide binding to purified HLA, gel filtration; conditions: remark: other sources report otherwise
HLA-A*0206 (human) [32] = assay: as above; conditions: remark: other sources report otherwise
HLA-A*0202 (human) [33] = assay: as above; conditions: remark: other sources report otherwise
HLA-A*0203 (human) [34] = conditions: remark: other sources report otherwise; remark: listed apart in the source
HLA-A*0201 (human) [35] = conditions: remark: other sources report otherwise; remark: listed apart in the source
HLA-A*0203 (human) [36] = assay: competition with 125I-labelled standard peptide for purified HLA; conditions: remark: other sources report otherwise

Binder: QLMFLERAFI [Peptide 1126.16]
IC50 (HLA-A*6802 (human) [4]): 30 nM

Binder: LMLLRLSEPA [Peptide 63.0014 (PSA.117)]
IC50 (HLA-A*0201 (human) [6]): 200 nM
IC50 (HLA-A*6802 (human) [7]): 5000 nM

Binder: LTQLGMEQHY [PAP peptide, position 70, 10 amino acids]
relative binding ratio (IC50 of standard peptide / IC50 of test peptide) (HLA-A*0101 (human)): 0.62

Binder: VYNGLLPPY [PAP (Prostatic Acid Phosphatase) peptide, position 302, 9 amino acids]
relative binding ratio (A*2401) (HLA-A*2401 (human)): 0.032

Binder: RMMNDQLMFL [Peptide 1126.06]
IC50 (HLA-A*0206 (human) [9]): 40 nM

Binder: WVLTAAHCL [Kallikrein 59, 9 amino acids]
relative binding ratio (HLA-A*0201 (human) [10]): 0.0003
relative binding ratio (HLA-A*0206 (human) [11]): 0.016
relative binding ratio (HLA-A*0202 (human) [12]): 0.0018
relative binding ratio (HLA-A*0203 (human) [13]): 0.0001

Binder: WVLTAAHCI [PSA 55, 9 amino acids]
relative binding ratio (HLA-A*0201 (human) [10]): 0.0008

Binder: VTKFMLCAGR [PSA position 188, 10 amino acids]
relative binding ratio (IC50 of standard peptide / IC50 of test peptide) (HLA-A*1101 (human) [14]): 0.012

Binder: VFRHGDRSPI [PAP (Prostatic Acid Phosphatase) peptide, position 41, 10 amino acids]
relative binding ratio (A*2401) (HLA-A*2401 (human)): 0.0005

Binder: GVSIWNPILV [Peptide 63.0041 … (PAP.128.V10)]
IC50 (HLA-A*0201 (human) [19]): 250 nM
IC50 (HLA-A*0206 (human) [20]): 451 nM
IC50 (HLA-A*6802 (human) [22]): 2290 nM
IC50 (HLA-A*0202 (human) [23]): 94 nM

Binder: RAVCGGVLVH [PSA 43, 10 amino acids]
relative binding ratio (IC50 of standard peptide / IC50 of test peptide) (HLA-A*1101 (human) [24]): 0.031

Binder: PLLLWQPIPV [Peptide 63.0042 … (PAP.134.L2)]
IC50 (HLA-A*0201 (human) [19]): 238 nM
IC50 (HLA-A*0206 (human) [20]): 336 nM
IC50 (HLA-A*0202 (human) [23]): 47 nM

Binder: ALFDIESKV [Peptide 1129.08]
IC50 (HLA-A*0202 (human) [27]): 0.7 nM

Binder: VTKFMLCAGR [PSA 188 10-mer peptide …]
relative binding ratio (IC50 of standard peptide / IC50 of test peptide) (HLA-A*0301 (human)): 0.0003

Binder: GLPEGDLVYV [Peptide 1389.22]
IC50 (HLA-A*0206 (human) [9]): 112 nM
IC50 (HLA-A*6802 (human) [4]): 964 nM

Binder: MLLRLSEPAEV [Peptide 1389.12 (PSA.118.V11)]
IC50 (HLA-A*0203 (human) [31]): 115 nM

Binder: TLSVTWIGV [Peptide 60.0217 (PSA.5.V9)]
IC50 (HLA-A*0206 (human) [32]): 712 nM
IC50 (HLA-A*6802 (human) [7]): 229 nM
IC50 (HLA-A*0202 (human) [33]): 4.9 nM
IC50 (HLA-A*0203 (human) [31]): 40 nM

Binder: KLRELSELSV [Peptide 63.0048 … (PAP.234.V10)]
IC50 (HLA-A*0201 (human) [19]): 263 nM
IC50 (HLA-A*6802 (human) [22]): 1820 nM

Binder: STCSGDSGGPL [PSA peptide, position 203, 11 amino acids]
relative binding ratio (HLA-A*0203 (human) [34]): 0.0092
relative binding ratio (HLA-A*0201 (human) [35]): 0.0005

Binder: RAVCGGVLVH [PSA peptide, position 43, 10 amino acids]
relative binding ratio (IC50 of standard peptide / IC50 of test peptide) (HLA-A*0301 (human)): 0.011

Binder: VLAGGFFLL [Peptide 1126.10]
IC50 (HLA-A*0202 (human) [27]): 0.2 nM

Results, then the binder that gave them:

IC50 (HLA-A*0202 (human) [1]): 1 nM
Binder: ALFPPEGVSV [peptide 1419.61, PAP.122.V10]

IC50 (HLA-A*0201 (human) [2]): 50 nM
Binder: DLMLLRLSEPV [Peptide 1419.13, HuK2.120.V11]

IC50 (HLA-A*0202 (human) [3]): 0.2 nM
Binder: VLAGGFFLL [peptide 1126.10, PSM.27]

IC50 (HLA-A*6802 (human) [5]): 6670 nM
Binder: KVTEFMLCV [peptide 1418.21, HuK2.191.V9]

IC50 (HLA-A*0201 (human) [8]): 313 nM
IC50 (HLA-A*0206 (human) [9]): 40 nM
IC50 (HLA-A*6802 (human) [4]): 571 nM
Binder: GTPEGDLVYV [Peptide 1418.29]

IC50 (HLA-A*0202 (human) [3]): 0.7 nM
Binder: ALFDIESKV [peptide 1129.08, PSM.711]

IC50 (HLA-A*0206 (human) [15]): 40 nM
Binder: RMMNDQLMFL [peptide 1126.06, PSM.662]

IC50 (HLA-A*0202 (human) [1]): 0.9 nM
Binder: GLHGQDLFGI [peptide 1166.11, PAP.196]

IC50 (HLA-A*0201 (human) [16]): 40 nM
Binder: SLSLGFLFLL [peptide 1419.51, PAP.13]

IC50 (HLA-A*0201 (human) [17]): 50 nM
Binder: DLMLLRLSEPV [peptide 1419.13, PSA.116.V11 / HuK2.120.V11]

IC50 (HLA-A*0206 (human) [18]): 51 nM
Binder: FMLCAGLWV [peptide 1418.22, HuK2.195.V9]

IC50 (HLA-A*0201 (human) [19]): 278 nM
IC50 (HLA-A*0206 (human) [20]): 2640 nM
IC50 (HLA-A*0203 (human) [21]): 133 nM
Binder: ALFPPEGVSI [Peptide 1419.6 … (PAP.122)]

IC50 (HLA-A*0203 (human) [25]): 3.2 nM
Binder: GLHGQDLFGV [peptide 1419.62, PAP.196.V10]

IC50 (HLA-A*0202 (human) [1]): 0.6 nM
Binder: LLFFWLDRSV [peptide 1097.09, PAP.21]

IC50 (HLA-A*0201 (human) [2]): 72 nM
IC50 (HLA-A*0203 (human) [26]): 73 nM
Binder: SLHLLSNDMCA [Peptide 1419.14, HuK2.175]

IC50 (HLA-A*0201 (human) [28]): 5.3 nM
IC50 (HLA-A*0206 (human) [18]): 10 nM
IC50 (HLA-A*6802 (human) [5]): 1700 nM
IC50 (HLA-A*0202 (human) [29]): 0.7 nM
IC50 (HLA-A*0203 (human) [30]): 4.3 nM
Binder: LLSNDMCARV [peptide 1418.53, HuK2.178.V10]

IC50 (HLA-A*0203 (human) [26]): 4 nM
Binder: FLRPRSLQCV [Peptide 1419.07, HuK2.165]

IC50 (HLA-A*0202 (human) [29]): 102 nM
IC50 (HLA-A*0203 (human) [30]): 278 nM
Binder: HLLSNDMCV [peptide 1418.20, HuK2.177.V9]

IC50 (HLA-A*0203 (human) [36]): 9.5 nM
Binder: KLQCVDLHVV [peptide 1419.24, PSA.166.V10]
